The record followed here is patent US20190016812A1 (AbbVie / Abbott, published 2019).

The target of assay [1] is T1, cynomolgus TNFSF9 (cTNFSF9) protein, soluble recombinant (cynomolgus).
T1 construct: extracellular domain; also called cynomolgus TNFSF9 protein
Put plainly: SPR (Biacore). (In SPR one partner is held on a chip, and binding of the other changes the refractive index at the surface.)

In assay [2] the target is T2, hTNFSF9-His (monomeric human TNFSF9 extracellular domain with 9x-Histidine tag) (human, UniProt P41273 50-254).
T2 construct: also called hTNFSF9-His protein; monomeric hTNFSF9-His antigen
Put plainly: SPR (Biacore).

Assay [3] concerns the target T3, human TNFSF9 (R&D Systems; #2295-4L-025/CF) (human, UniProt P41273 71-254, limits assumed).
T3 construct: also called TNFSF9 (ligand); TNFSF9 ligand
Put plainly: MSD ELISA: TNFSF9 + 1 ug/mL antibody, binding to coated TNFRSF9. (In general: An ELISA detects its analyte on a solid surface through an enzyme-linked reagent.)

Assay [4] concerns the target T4, human TNFSF9 (hTNFSF9), full length, overexpressed on HEK293T cells (human, UniProt P41273 1-254). Put plainly: cell-based or functional assay.
Assay [5] has as its target T5, cynomolgus TNFSF9 (cTNFSF9), full length, overexpressed on HEK293T cells (cynomolgus). Put plainly: cell-based or functional assay.
Assay [6] concerns the target T1, cynomolgus TNFSF9 (cTNFSF9) protein, …. Kind of assay: SPR (Biacore). This is another data set of the same source.
Assay [7] deals with T2, hTNFSF9-His (monomeric human TNFSF9 …). Kind of assay: SPR (Biacore). The source holds these as a separate data set.
Assay [8] deals with T4, human TNFSF9 (hTNFSF9), full length, …. Put plainly: cell-based or functional assay. The source holds these as a separate data set.
In assay [9] the target is T5, cynomolgus TNFSF9 (cTNFSF9), full …. Kind of assay: cell-based or functional assay. This is another data set of the same source.
Assay [10] addresses T3, human TNFSF9 (R&D Systems; …). Put plainly: MSD ELISA: TNFSF9 + 1 ug/mL antibody, binding to coated TNFRSF9. The source holds these as a separate data set.

Where two headings read alike, the source gives them in different places.

T2 sequence (P41273 other isoform, or with tags, fused parts or gaps): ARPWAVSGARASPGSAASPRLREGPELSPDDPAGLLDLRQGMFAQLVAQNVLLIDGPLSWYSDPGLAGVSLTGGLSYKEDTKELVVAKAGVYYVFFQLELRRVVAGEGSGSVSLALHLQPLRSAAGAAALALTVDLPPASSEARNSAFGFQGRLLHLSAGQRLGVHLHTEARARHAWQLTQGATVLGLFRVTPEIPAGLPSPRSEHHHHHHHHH
T3 sequence (P41273 71-254 limits assumed): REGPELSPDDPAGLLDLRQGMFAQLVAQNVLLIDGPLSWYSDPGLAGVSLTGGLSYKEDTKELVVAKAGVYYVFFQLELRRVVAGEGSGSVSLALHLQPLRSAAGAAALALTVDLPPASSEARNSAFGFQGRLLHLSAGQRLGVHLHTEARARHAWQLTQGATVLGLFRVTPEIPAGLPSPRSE

B1: SC113.44 (antibody, mouse IgG1, V domains shown)
VH: QVQLQQSGPELVKPGTSVRISCKASGYTFTSYYIHWVKQRPGQGLEWIGWIYPRDVDTKYNETFKGKATLTADKSSSTAYIQLNSLTSEDSAVYFCARELTGTVFDYWGQGTTLTVSS
VL: QIVLSQSPAILSASPGEKVTMTCRASSSVTYMHWYQRKPGSSPKPWIYATSTLASGVPARFSGTGSGTSYSLTISRVEAEDAATYFCQQWSSNPLTFGAGTKLELK
notes: mouse IgG1
What is called Kd is the free concentration of one partner at which half of the binding sites on the other are occupied at equilibrium, for simple one-to-one binding. Turning to B1, the Kd in [1] came out at 13 nM; in assay [2], 9 nM. For the same molecule, in assay [3], the “% inhibition of ligand receptor interaction” value (“% inhibition” for short) amounted to 48%. In addition, the results for the “% live cells, Fab-saporin killing, 250 pM antibody” value (shortened to “% live cells, Fab-saporin killing”) in assay [4] and in assay [5] were 10.8% and 33.9%, respectively.

B2: SC113.15 (antibody, mouse IgG1, V domains shown)
VH: QVQLQQSGAELAKPGASVKMSCKASGYTFTTFWMHWLKQRPGQGLEWIGYINPRTYFTYYNQKFEDQATLTADESSSTAYMQLNSLTSEDSAVYYCATHHGGFDVWGAGTTVTVSS
VL: DVVMTQTPLSLPVSLGDQASISCRSSQSLVHSNGDTYLHWYLQKPGQSPKLLIYKVSNRFSGVPDRFSGSRSGTDFTLKISRVEAEDLGIYFCSQSTHVPYTFGGGTKLEIK
notes: mouse IgG1
Consider B2, for which the Kd in assay [6] amounted to 11 nM; in [7] it was 5 nM. For the same molecule, the entries for the “% live cells, Fab-saporin killing” value in [8] and in assay [9] were 20.2% and 107%, respectively. The “% inhibition” value in assay [10] stood at 42%.

B3: SC113.14 (antibody, mouse IgG2a, V domains shown)
VH: QVQLQQSGAELVKPGASVKLSCKASGYTFTEYTIHWVKQKSGQGLEWIGWFYPGSGSLKFNEKFKDKATLTADISSNTVYMELSRLTSEDSAVYFCARHEDFFYFDSYTMDYWGQGTSVTVSS
VL: QIVLTQSPAIMSASPGEKVTLTCSASSSVSSSYLYWYQQKPGSSPKLWIYSTSKLSSGVPARFSGSGSGTSYSLTISSMEAEDAASYFCHQWSTYPWTFGGGTKLEIK
notes: mouse IgG2a
In the case of B3, the dissociation constant (Kd) in assay [6] came out at 7 nM; in [7], 3 nM. The “% live cells, Fab-saporin killing” value in assay [8] worked out at 10.2%; in assay [9] it was 11%. In assay [10], the “% inhibition” value is -34%.

B4: SC113.35 (antibody, mouse IgG2b, V domains shown)
VH: DVQLQESGPDLVKPSQSLSLTCTVTGYSITSGYGWHWIRQFPGNKLEWMGYIDYSGNNNYNPSLKSRISITRDTSKNQLFLQLNSVTAEDTATYFCARIYYDAMDYWGQGTSVTVSS
VL: DIVMTQSHKFMSTSVGERVSITCKASQDVGGAVAWYQQKPGQSPKLLIYWASTRHTGVPDRFTGSGSGTDFTLTISNVQSEDLADYFCQQYSSYPLTFGAGTKLDLK
notes: mouse IgG2b
Turning to B4, the Kd in assay [1] came out at 10 nM; in [2], 4 nM. Further, the “% inhibition” value in [3] was found to be 73%. For the same molecule, the “% live cells, Fab-saporin killing” value in assay [4] amounted to 28.5%; in [5] it was 69.6%.
